In article PMC2120989 (The Journal of Cell Biology, 1996):

T1: recombinant full-length (His)6-tagged Xenopus beta-catenin (Xenopus, UniProt P26233 1-781)
T1 sequence (looked up): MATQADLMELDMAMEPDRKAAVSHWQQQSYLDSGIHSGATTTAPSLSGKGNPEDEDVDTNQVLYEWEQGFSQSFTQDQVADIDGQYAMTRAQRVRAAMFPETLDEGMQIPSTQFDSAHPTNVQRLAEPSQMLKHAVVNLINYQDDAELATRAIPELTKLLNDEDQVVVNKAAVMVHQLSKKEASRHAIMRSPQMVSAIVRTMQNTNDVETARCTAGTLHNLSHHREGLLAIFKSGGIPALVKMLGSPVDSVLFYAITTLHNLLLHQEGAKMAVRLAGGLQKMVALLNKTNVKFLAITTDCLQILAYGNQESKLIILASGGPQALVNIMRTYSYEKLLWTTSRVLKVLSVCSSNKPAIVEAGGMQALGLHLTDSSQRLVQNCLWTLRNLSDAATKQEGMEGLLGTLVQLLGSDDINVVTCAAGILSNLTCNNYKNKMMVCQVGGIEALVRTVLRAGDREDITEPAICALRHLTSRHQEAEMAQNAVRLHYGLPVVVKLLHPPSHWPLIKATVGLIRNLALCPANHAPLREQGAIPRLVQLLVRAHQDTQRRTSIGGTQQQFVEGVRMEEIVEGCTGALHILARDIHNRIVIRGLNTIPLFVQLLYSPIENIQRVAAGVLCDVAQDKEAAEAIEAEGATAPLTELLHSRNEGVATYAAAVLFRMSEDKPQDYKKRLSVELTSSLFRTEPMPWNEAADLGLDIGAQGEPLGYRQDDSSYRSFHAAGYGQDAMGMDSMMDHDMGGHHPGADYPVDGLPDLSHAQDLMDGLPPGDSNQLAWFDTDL


Tests used:
[1] = biological target: full-length recombinant fascin, thioredoxin fusion protein (mouse, UniProt Q61553 1-493); assay: co-IP
[2] = biological target: T1, recombinant full-length (His)6-tagged …; assay: co-IP

binding result [1] | binding result [2] | Binder
binds |  | GST fusion protein of the Armadillo repeat region of beta-catenin (amino acid residues 167-583) (domain or fragment) VVNKAAVMVHQLSKKEASRHAIMRSPQMVSAIVRTMQNTNDVETARCTAGTLHNLSHHREGLLAIFKSGGIPALVKMLGSPVDSVLFYAITTLHNLLLHQEGAKMAVRLAGGLQKMVALLNKTNVKFLAITTDCLQILAYGNQESKLIILASGGPQALVNIMRTYSYEKLLWTTSRVLKVLSVCSSNKPAIVEAGGMQALGLHLTDSSQRLVQNCLWTLRNLSDAATKQEGMEGLLGTLVQLLGSDDINVVTCAAGILSNLTCNNYKNKMMVCQVGGIEALVRTVLRAGDREDITEPAICALRHLTSRHQEAEMAQNAVRLHYGLPVVVKLLHPPSHWPLIKATVGLIRNLALCPANHAPLREQGAIPRLVQLLVRAHQDTQRRTSIGGTQQQFVEGVRMEEIVEGCTGALHILARD
 | binds | GST-E-cadherin fusion protein, cytoplasmic domain (residues 734-884) of mouse E-cadherin (domain or fragment) not shown
